Source: patent US20240116985A1 (published 2024)
Values belong to the binder of their own block, whether it stands above or below them. Starred links: 1 amine or outer side, 2 acyl side, 3 side chain; linkers in the order of their positions; H or OH if unused. Positions of bridges follow the written chain, without caps; N, C: chain ends. Non-standard residues stand in square brackets, D forms with d. Primed or numbered codes have the meaning given here. B5(26) = 2-amino-2-(pent-4-en-1-yl)hept-6-enoic acid (bis-pentenylglycine), stitching residue carrying two staples, C=CCCCC(CCCC=C)(N[*:1])C(=O)[*:2]; PyrS2″ = (S)-3-amino-1-((pent-4-en-1-yloxy)carbonyl)pyrrolidine-3-carboxylic acid (stapling residue), C=CCCCOC(=O)N1CC[C@@](N[*:1])(C(=O)[*:2])C1; B5(23) = 2-amino-2-(pent-4-en-1-yl)hept-6-enoic acid (2,2-bis(4-pentenyl)glycine), stitching residue, C=CCCCC(CCCC=C)(N[*:1])C(=O)[*:2]; B5(24) = 2-amino-2-(pent-4-en-1-yl)hept-6-enoic acid, 2,2-bis(4-pentenyl)glycine (stitching residue), C=CCCCC(CCCC=C)(N[*:1])C(=O)[*:2]; B5(4) = 2,2-bis(4-pentenyl)glycine = 2-amino-2-(pent-4-en-1-yl)hept-6-enoic acid (stitching residue), C=CCCCC(CCCC=C)(N[*:1])C(=O)[*:2]; B5(5) = 2,2-bis(4-pentenyl)glycine, 2-amino-2-(pent-4-en-1-yl)hept-6-enoic acid (stitching residue), C=CCCCC(CCCC=C)(N[*:1])C(=O)[*:2]; B5(21) = 2-amino-2-(pent-4-en-1-yl)hept-6-enoic acid, bis(4-pentenyl)glycine (stitching residue), C=CCCCC(CCCC=C)(N[*:1])C(=O)[*:2]; TfeGA = (S)-2-amino-3-((carboxymethyl)(2,2,2-trifluoroethyl)amino)propanoic acid, O=C([C@H](CN(CC(=O)[*:3])CC(F)(F)F)N[*:1])[*:2]; B5(12) = 2-amino-2-(pent-4-en-1-yl)hept-6-enoic acid (two olefin side chains), C=CCCCC(CCCC=C)(N[*:1])C(=O)[*:2]; S(OMe) = O-methyl-L-serine, COC[C@H](N[*:1])C(=O)[*:2]; Phe(3-COOH) = N[C@@H](Cc1cccc(C(=O)O)c1)C(=O)O; Phe(2-Cl) = N[C@@H](Cc1ccccc1Cl)C(=O)O; Phe(3-F) = N[C@@H](Cc1cccc(F)c1)C(=O)O; His(τ-Me) = Cn1cnc(C[C@H](N)C(=O)O)c1; Phe(2-F) = N[C@@H](Cc1ccccc1F)C(=O)O; Bta = N[C@@H](Cc1csc2ccccc12)C(=O)O; His(π-Me) = Cn1cncc1C[C@H](N)C(=O)O; Lys(iPr) = CC(C)NCCCC[C@H](N)C(=O)O; αAllylPro = C=CC[C@@]1(C(=O)O)CCCN1; tBuAla = CC(C)(C)C[C@H](N)C(=O)O; 2Thi = N[C@@H](Cc1cccs1)C(=O)O; 3Thi = N[C@@H](Cc1ccsc1)C(=O)O; S8 = C=CCCCCCC[C@](C)(N)C(=O)O; PyrS2(4) = not defined here; TfeGA″ = not defined here; Aib = CC(C)(N)C(=O)O

Legend:
[1] = molecular target: T1, full-length beta-Catenin (Uniprot ID P35222) (Homo sapiens (Human), UniProt P35222 1-781); assay: fluorescence polarization competition; peptide titrated against 10 nM full-length beta-catenin + 10 nM 5FAM-TCF4(10-53) probe
T1 construct: The assay text says 'full-length'; also called bCat; B-Catenin
T1 sequence: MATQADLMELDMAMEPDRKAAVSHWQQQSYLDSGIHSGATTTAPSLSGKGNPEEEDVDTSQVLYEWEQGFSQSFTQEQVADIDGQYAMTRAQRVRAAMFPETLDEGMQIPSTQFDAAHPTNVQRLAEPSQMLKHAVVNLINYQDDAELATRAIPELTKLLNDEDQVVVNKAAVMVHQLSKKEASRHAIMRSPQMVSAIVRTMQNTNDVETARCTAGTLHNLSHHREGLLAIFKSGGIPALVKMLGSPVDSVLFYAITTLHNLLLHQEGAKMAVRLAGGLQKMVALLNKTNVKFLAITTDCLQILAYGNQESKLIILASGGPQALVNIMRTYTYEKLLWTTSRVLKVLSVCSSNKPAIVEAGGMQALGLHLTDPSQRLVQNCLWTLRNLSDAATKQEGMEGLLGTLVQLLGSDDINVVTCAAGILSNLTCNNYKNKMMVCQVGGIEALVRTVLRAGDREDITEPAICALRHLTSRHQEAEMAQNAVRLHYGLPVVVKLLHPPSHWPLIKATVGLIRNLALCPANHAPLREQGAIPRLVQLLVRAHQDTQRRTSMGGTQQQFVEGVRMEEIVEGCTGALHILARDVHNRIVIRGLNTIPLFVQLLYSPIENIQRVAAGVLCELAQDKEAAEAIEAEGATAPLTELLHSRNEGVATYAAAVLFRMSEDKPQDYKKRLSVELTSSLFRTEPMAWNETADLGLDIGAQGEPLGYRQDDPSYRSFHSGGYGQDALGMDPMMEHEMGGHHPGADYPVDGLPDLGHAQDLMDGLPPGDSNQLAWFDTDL
Procedure: The plate was incubated protected from light for 60 minutes at 20° C. prior to read. Reads were performed on a CLARIOstar plate reader (BMG Labtech) in duplicate, and data were fitted to a 1:1 binding model with hill slope using an in-house script. All provided concentrations are final concentrations.

[2] = molecular target: T2, B-cat-Halo (beta-catenin HaloTag construct transfected into HEK293 cells) (UniProt P35222 1-781); assay: cell-based or functional assay
T2 sequence (looked up): T1 sequence

[3] = molecular target: T3, full-length beta-Catenin (Uniprot ID P35222) (Homo sapiens (Human), UniProt P35222 1-781); assay: fluorescence polarization competition; full-length beta-catenin, competitor 5FAM-TCF4(10-53) probe
T3 construct: also called bCat; B-Catenin
T3 sequence: T1 sequence
Method in brief: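 Data fitted to 1:1 binding model with hill slope from duplicate reads taken after 60 minutes at 20° C. in the dark.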

B-cat-Halo = molecular target: T4, B-cat-Halo (UniProt P35222 1-781); assay: cell-based or functional assay
T4 sequence (looked up): T1 sequence

NanoBRET Abs IC50 [2]: 37.7 µM
B2: I-1917 (peptide)
peptide: Ac-[αAllylPro]D[tBuAla][B5(4)]D[Phe(3-COOH)]KAFL[PyrS2(4)][3Thi][Bta]A-NH2
modifications: staple 1-4, 4-11; not fully specified; printed as Ac-PL3-Asp-Npg-B5-Asp-3COOHF-Lys-Ala-Phe-Leu-PyrS2-3Thi-BztA-Ala-NH2; reading uncertain

IC50 [1]: 5000 nM
B6: I-440 (peptide)
peptide: XDAXDEAAFNXHXQ
modifications: not fully specified; N-terminal Ac, C-terminal NH2; non-natural PL3(1), B5(4), S8(11), 1meH(12), BztA(13); staples PL3-B5 and B5-S8 (olefin metathesis)
notes: Stapled peptide composition

IC50 [3]: 3.72 µM
B9: I-450 (peptide)
peptide: Ac-[αAllylPro]DA[B5(21)]DEAA[2Thi]Q[S8][Phe(3-F)]WQ-NH2
modifications: staple 1-4, 4-11
notes: Stapled peptide composition

NanoBRET Abs IC50 (B-cat-Halo): > 20 µM
B10: I-1762 (peptide)
peptide: Ac-[αAllylPro]D[tBuAla][B5(5)]D[TfeGA″][Lys(iPr)]AFT[PyrS2(4)][3Thi][Bta]F-NH2
modifications: staple 1-4, 4-11; not fully specified; reading uncertain

NanoBRET Abs IC50 [2]: 20.2 µM
B12: I-1915 (peptide)
peptide: Ac-[αAllylPro]D[tBuAla][B5(4)]D[Phe(3-COOH)][Lys(iPr)]AFL[PyrS2(4)][3Thi][Bta]A-NH2
modifications: staple 1-4, 4-11; not fully specified; printed as Ac-PL3-Asp-Npg-B5-Asp-3COOHF-iPrLys-Ala-Phe-Leu-PyrS2-3Thi-BztA-Ala-NH2; reading uncertain

NanoBRET Abs IC50 [2]: 6.4 µM
B13: I-1914 (peptide)
peptide: Ac-[αAllylPro]D[tBuAla][B5(12)]D[Phe(3-COOH)][Aib]AFL[PyrS2(4)][3Thi][Bta]F-NH2
modifications: staple 1-4, 4-11; not fully specified; printed as Ac-PL3-Asp-Npg-B5-Asp-3COOHF-Aib-Ala-Phe-Leu-PyrS2-3Thi-BztA-Phe-NH2; reading uncertain

NanoBRET Abs IC50 (B-cat-Halo): > 20 µM
B14: I-1768 (peptide)
peptide: Ac-[αAllylPro]D[tBuAla][B5(5)]D[TfeGA][Lys(iPr)]AFT[PyrS2″][3Thi][Bta]F-NH2
modifications: staple 1-4, 4-11; also: -CH=CH- in each staple reduced to -CH2-CH2-

The remaining lines, values behind:

B1: I-434 (peptide)
peptide: Ac-[αAllylPro]DA[B5(24)]DEAAFN[S8][Phe(2-F)][Bta]Q-NH2
modifications: staple 1-4, 4-11
notes: Stapled peptide composition
IC50 [1]: 67.5 nM

B3: I-420 (peptide)
peptide: Ac-[αAllylPro]DA[B5(23)]DEAAFT[S8]F[Bta]H-NH2
modifications: staple 1-4, 4-11
notes: Stapled peptide composition
IC50 [1]: 128 nM

B4: I-433 (peptide)
peptide: Ac-[αAllylPro]DA[B5(24)]DEAAF[S(OMe)][S8]F[Bta]Q-NH2
modifications: staple 1-4, 4-11
notes: Stapled peptide composition
IC50 [1]: 136 nM

B5: I-438 (peptide)
peptide: Ac-[αAllylPro]DA[B5(26)]DEAAFN[S8][His(π-Me)][Bta]Q-NH2
modifications: staple 1-4, 4-11
notes: Stapled peptide composition
IC50 [1]: 5000 nM

B7: I-439 (peptide)
peptide: Ac-[αAllylPro]DA[B5(21)]DEAAFN[S8][His(τ-Me)][Bta]Q-NH2
modifications: staple 1-4, 4-11
notes: Stapled peptide composition
IC50 [1]: 5000 nM

B8: I-423 (peptide)
peptide: Ac-[αAllylPro]DA[B5(23)]DEAAFT[S8]F[Bta]Q-NH2
modifications: staple 1-4, 4-11
notes: Stapled peptide composition
IC50 [1]: 105 nM

B11: I-435 (peptide)
peptide: Ac-[αAllylPro]DA[B5(24)]DEAAFN[S8][Phe(2-Cl)][Bta]Q-NH2
modifications: staple 1-4, 4-11
notes: Stapled peptide composition
IC50 [1]: 70 nM
